Tests used:
[1] = system: ZF11xHunt-Kox-1 (Artificial); assay: cell_activity
[2] = system: ZF6xHunt-Kox-1 (Artificial); assay: cell_activity; conditions: htt mRNA (up to 2.5-fold); protein up to 2-fold; STHdh Q111/Q111, 20 days
Chain of ZF6xHunt-Kox-1 (Artificial) (chain, as listed by the source): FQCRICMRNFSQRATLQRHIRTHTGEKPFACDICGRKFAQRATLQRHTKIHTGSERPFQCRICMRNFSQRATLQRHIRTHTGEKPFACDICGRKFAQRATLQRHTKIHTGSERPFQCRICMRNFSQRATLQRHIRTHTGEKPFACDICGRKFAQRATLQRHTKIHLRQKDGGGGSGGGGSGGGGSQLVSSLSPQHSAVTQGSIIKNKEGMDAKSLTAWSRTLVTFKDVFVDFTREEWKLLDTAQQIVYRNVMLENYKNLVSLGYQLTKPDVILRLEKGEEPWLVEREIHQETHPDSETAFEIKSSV

Chain of ZF11xHunt-Kox-1 (Artificial) (chain, as listed by the source): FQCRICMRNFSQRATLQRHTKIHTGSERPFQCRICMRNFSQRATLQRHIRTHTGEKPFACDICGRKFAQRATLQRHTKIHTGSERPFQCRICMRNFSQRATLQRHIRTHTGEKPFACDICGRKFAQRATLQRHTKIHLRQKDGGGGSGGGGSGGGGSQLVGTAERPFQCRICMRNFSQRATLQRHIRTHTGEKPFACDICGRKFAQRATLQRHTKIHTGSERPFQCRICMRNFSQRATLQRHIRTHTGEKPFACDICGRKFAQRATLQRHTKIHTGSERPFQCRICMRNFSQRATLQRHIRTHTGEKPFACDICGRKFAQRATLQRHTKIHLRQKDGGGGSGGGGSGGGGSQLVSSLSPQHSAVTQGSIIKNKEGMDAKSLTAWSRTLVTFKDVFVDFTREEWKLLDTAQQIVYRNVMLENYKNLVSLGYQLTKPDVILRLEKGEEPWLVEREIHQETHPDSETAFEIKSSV

## R6/2 mutant HTT transgene
[1]; AAV2/1 striatal delivery, R6/2 mice, week 6, average
  activity (% mRNA reduction): > 45

## STHdh Q111 mutant htt locus
[1]; protein reduced 95%, STHdh Q111/Q111, 20 days
  activity (% mRNA reduction): 80
[2]
  activity (fold repression): < 2.5

— patent US20130336947
